According to the Immune Epitope Database (IEDB):

molecular target: HLA-B*57:01; assay: IEDB peptide-MHC binding, purified MHC/competitive/radioactivity; ≥ and ≤ were set here for values at or beyond the usual limits of such assays; details: source organism: Bordetella pertussis

Row | Sequence | IC50 [µM]
1 | DNEGKMESN | ≥ 70.4
2 | RGSAATFTL | 10.7

molecular target: HLA-A*02:01; assay: as above; details: source organism: Bordetella pertussis

Row | Sequence | IC50 [µM]
3 | FVWYVDTVI | 0.802
4 | GIGALKAGA | 69.4
5 | ILLENPAAE | 18.7
6 | SLFAPHGNV | 7.09
7 | VSSPPPVSV | 49.5

molecular target: HLA-B*53:01; assay: as above; details: source organism: Bordetella pertussis

Row | Sequence | IC50 [µM]
8 | AIRVGRGAR | 52.7
9 | AQQLKQADR | 47.2
10 | FVWYVDTVI | 30.2
11 | LPLKANPMH | ≥ 78.2
12 | LPVSLTALD | 23.1
13 | TFEGKPALE | 46
14 | VVDGPPSRP | 69.9

molecular target: HLA-B*07:02; assay: as above; details: source organism: Bordetella pertussis

Row | Sequence | IC50 [µM]
15 | QPLPPRPVA | 8.37

molecular target: HLA-B*44:03; assay: as above; details: source organism: Bordetella pertussis

Row | Sequence | IC50 [µM]
16 | PELGAAIRV | 6.51
17 | TRQGIMDQY | 63.9
18 | TTEYPNARY | 63.5

molecular target: HLA-B*35:01; assay: as above; details: source organism: Bordetella pertussis

Row | Sequence | IC50 [µM]
19 | EVAKVEVVP | 69.9
20 | LPVSLTALD | 7.12
21 | MDAKGGTLL | 69.9
22 | VPASGAPAA | 4.66
